Key:
[1] = biological target: T1, Dmr1p (Ccm1p), tag removed (Saccharomyces cerevisiae, UniProt P48237 27-864); assay: EMSA; 0.2 ug tRNA; EMSA as in Puchta et al. 2010 (buffer not restated), 15 uL, up to 0.8 ug Dmr1p, BSA to constant protein, 0.2 ug tRNA; PNPase protection: 20 mM Tris-HCl pH 8.0; conditions: protein: recombinant; tags: none after TEV cleavage (from Dmr1-MBP-His6); label: 32P-UTP
T1 sequence: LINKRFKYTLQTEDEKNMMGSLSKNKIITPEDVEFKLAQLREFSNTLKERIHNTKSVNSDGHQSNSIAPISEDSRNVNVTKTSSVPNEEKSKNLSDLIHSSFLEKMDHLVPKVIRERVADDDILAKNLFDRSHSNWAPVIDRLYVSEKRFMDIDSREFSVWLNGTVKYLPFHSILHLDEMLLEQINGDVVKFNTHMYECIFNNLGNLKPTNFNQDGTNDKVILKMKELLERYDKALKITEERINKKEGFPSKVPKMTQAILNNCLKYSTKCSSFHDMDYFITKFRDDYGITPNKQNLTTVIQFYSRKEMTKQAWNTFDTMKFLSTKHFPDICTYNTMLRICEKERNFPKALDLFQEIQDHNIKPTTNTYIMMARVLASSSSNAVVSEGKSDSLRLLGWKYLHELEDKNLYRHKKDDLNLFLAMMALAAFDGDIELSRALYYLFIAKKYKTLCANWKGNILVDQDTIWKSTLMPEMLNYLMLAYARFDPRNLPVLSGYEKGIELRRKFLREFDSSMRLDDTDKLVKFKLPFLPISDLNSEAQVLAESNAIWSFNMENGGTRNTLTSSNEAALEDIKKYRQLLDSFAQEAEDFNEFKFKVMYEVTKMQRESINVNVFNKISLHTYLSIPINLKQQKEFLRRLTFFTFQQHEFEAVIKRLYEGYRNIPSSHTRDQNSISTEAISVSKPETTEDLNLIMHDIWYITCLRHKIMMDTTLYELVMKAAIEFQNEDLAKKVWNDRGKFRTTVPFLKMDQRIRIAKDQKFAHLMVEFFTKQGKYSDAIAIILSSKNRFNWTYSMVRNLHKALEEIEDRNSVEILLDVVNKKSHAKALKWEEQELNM

Dmr1-His6 [2] = biological target: T2, Dmr1-His6 (Saccharomyces cerevisiae, UniProt P48237 27-864); assay: nuclease protection; PNPase, 2 mM MgCl2; not protected; EMSA as in Puchta et al. 2010 (buffer not restated), 15 uL, up to 0.8 ug Dmr1p, BSA to constant protein, 0.2 ug tRNA; PNPase protection: 20 mM Tris-HCl pH 8.0; conditions: protein: recombinant; tags: His6 (pET28a); label: 32P-UTP
T2 sequence: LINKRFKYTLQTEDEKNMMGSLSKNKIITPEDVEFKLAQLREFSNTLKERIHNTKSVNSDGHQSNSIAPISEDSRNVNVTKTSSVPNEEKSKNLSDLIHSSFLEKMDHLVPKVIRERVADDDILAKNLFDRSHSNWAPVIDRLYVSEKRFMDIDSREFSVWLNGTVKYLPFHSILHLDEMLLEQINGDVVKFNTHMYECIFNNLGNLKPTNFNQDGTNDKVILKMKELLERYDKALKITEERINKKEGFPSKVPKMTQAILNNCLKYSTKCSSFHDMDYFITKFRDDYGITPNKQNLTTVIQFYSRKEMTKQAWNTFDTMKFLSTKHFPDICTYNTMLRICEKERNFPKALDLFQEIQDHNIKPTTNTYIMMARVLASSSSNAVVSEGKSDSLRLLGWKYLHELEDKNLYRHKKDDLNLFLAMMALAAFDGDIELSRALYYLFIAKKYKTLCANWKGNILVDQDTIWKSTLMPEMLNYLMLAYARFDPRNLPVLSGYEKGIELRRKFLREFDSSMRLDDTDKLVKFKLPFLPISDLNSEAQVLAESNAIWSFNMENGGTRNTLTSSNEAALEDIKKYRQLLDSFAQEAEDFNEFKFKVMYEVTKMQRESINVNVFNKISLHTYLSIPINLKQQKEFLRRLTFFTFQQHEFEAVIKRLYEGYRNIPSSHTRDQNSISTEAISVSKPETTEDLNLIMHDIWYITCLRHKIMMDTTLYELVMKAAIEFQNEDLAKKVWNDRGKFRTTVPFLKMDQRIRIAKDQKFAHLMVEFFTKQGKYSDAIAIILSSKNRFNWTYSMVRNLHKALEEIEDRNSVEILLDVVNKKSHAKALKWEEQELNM

[3] = biological target: T1, Dmr1p (Ccm1p), tag removed; assay: EMSA; 0.2 ug tRNA; strong; EMSA as in Puchta et al. 2010 (buffer not restated), 15 uL, up to 0.8 ug Dmr1p, BSA to constant protein, 0.2 ug tRNA; PNPase protection: 20 mM Tris-HCl pH 8.0; conditions: protein: recombinant; tags: none after TEV cleavage (from Dmr1-MBP-His6); label: 32P-UTP
Dmr1-His6 [4] = biological target: T2, Dmr1-His6; assay: nuclease protection; PNPase, 2 mM MgCl2; complete protection, from 0.1 ug protein; EMSA as in Puchta et al. 2010 (buffer not restated), 15 uL, up to 0.8 ug Dmr1p, BSA to constant protein, 0.2 ug tRNA; PNPase protection: 20 mM Tris-HCl pH 8.0; conditions: protein: recombinant; tags: His6 (pET28a); label: 32P-UTP
Dmr1-His6 [5] = biological target: T2, Dmr1-His6; assay: nuclease protection; Terminator 5'-3' exonuclease, 2 mM MgCl2; partial; text calls it the 24 nt fragment, legend 15_14; EMSA as in Puchta et al. 2010 (buffer not restated), 15 uL, up to 0.8 ug Dmr1p, BSA to constant protein, 0.2 ug tRNA; PNPase protection: 20 mM Tris-HCl pH 8.0; conditions: protein: recombinant; tags: His6 (pET28a); label: 32P-UTP
Dmr1-His6 [6] = biological target: T2, Dmr1-His6; assay: footprinting; Dis3p 3'-5' exoribonuclease, 2 mM MgCl2; stop 3-5 nt downstream of (AUA)4AU; EMSA as in Puchta et al. 2010 (buffer not restated), 15 uL, up to 0.8 ug Dmr1p, BSA to constant protein, 0.2 ug tRNA; PNPase protection: 20 mM Tris-HCl pH 8.0; conditions: protein: recombinant; tags: His6 (pET28a); label: 32P-UTP

B1: N_24 (ssRNA)
RNA: GGAAAAGGAUAUAUAUAUAAUAUAUA
binding result [1]: no binding | binding result (Dmr1-His6 [2]): no binding

B2: 15_14 (ssRNA)
RNA: GGAUAAUAAUAAUAAU
binding result [1]: binds

B3: N_14 (ssRNA)
RNA: GGUAUAUAUAUAAUAU
binding result [1]: no binding

B4: 20_24 (ssRNA)
RNA: GGUUAUAAUAAUAAUAAUAAUAAUAU
binding result [3]: binds | binding result (Dmr1-His6 [4]): binds

B5: 15_14 5'-monophosphate (ssRNA)
RNA: GGAUAAUAAUAAUAAU
modifications: 5' monophosphate (polyphosphatase treated)
binding result (Dmr1-His6 [5]): binds

B6: 15_35 (ssRNA)
RNA: GGAAAGAUGAAAUAAUAAUAAUAAUUAUAAGACUAAU
binding result (Dmr1-His6 [6]): binds

B7: 15_24 (ssRNA)
RNA: GGAAAUAAUAAUAAUAAUUAUAAGAC
binding result [1]: binds

Reference: paper PMC7430664, “Yeast pentatricopeptide protein Dmr1 (Ccm1) binds a repetitive AU-rich motif in the small subunit mitochondrial ribosomal RNA”
